Measured values reported in patent US20250264471.

Biological target: Biotin-Crosstide (Anaspec)

B1: Akt1-S473E-T308P (protein)
chain: HHHHHHMDFRSGSPSDNSGAEEMEVSLAKPKHRVTMNEFEYLKLLGKGTFGKVILVKEKATGRYYAMKILKKEVIVAKDEVAHTLTENRVLQNSRHPFLTALKYSFQTHDRLCFVMEYANGGELFFHLSRERVFSEDRARFYGAEIVSALDYLHSEKNVVYRDLKLENLMLDKDGHIKITDFGLCKEGIKDGATMKTFCGTPEYLAPEVLEDNDYGRAVDWWGLGVVMYEMMCGRLPFYNQDHEKLFELILMEEIRFPRTLGPEAKSLLSGLLKKDPKQRLGGGSEDAKEIMQHRFFAGIVWQHVYEKKLSPPFKPQVTSETDTRYFDEEFTAQMITITPPDQDDSMECVDSERRPHFPQFEYSASSTA
- KM (µM) (present results), peptide substrate: 9 µM
